Positions count from the first letter of the chain named. Names and notes keep the numbering of the source. Each block holds one binder with its values, some of them ahead of it.
Molecular target: yeast 80S ribosome (S. cerevisiae (endogenous in yeast)) (UniProt P26321)
Test: fluorescence polarisation

Sequence of UniProt P26321 (P26321 whole entry, looked up): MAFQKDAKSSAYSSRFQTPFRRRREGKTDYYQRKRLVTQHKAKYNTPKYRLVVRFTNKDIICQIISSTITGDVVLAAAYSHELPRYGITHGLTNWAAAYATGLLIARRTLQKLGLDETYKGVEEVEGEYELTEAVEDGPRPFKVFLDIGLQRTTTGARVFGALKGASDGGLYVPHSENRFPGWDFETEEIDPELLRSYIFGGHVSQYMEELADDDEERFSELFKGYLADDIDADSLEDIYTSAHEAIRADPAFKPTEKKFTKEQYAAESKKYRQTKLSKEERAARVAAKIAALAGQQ

- Ki: 238 nM
B1: yeast non hypusine-containing eIF5A (eIF5A-Lys), wild type (natural protein)
chain: MSDEEHTFETADAGSSATYPMQCSALRKNGFVVIKSRPCKIVDMSTSKTGKHGHAKVHLVAIDIFTGKKLEDLSPSTHNMEVPVVKRNEYQLLDIDDGFLSLMNMDGDTKDDVKAPEGELGDSLQTAFDEGKDLMVTIISAMGEEAAISFKEAARTD

- Ki: 171 nM
B2: hypusine-containing eIF5A from mutant tif51A-4 (K86A/R87A/E89A) (natural protein)
chain: B1 chain with K86A, R87A, E89A
modifications: hypusine at Lys51

- Ki: 8 nM
B3: yeast hypusine-containing eIF5A (eIF5A-Hyp), wild type (natural protein)
chain: B1 chain
modifications: hypusine at Lys51

- Ki: 388 nM
B4: non hypusine-containing eIF5A from mutant tif51A-4 (K86A/R87A/E89A) (natural protein)
chain: B1 chain with K86A, R87A, E89A

From article PMC5897047
